Laboratory results: patent publication US20200317776A1 (published 2020)
Residue numbers refer to the chain shown, from its start. Where two headings read alike, the source gives them in different places. Each block holds one binder with its values, some of them ahead of it.

Columns and labels:
[1] = target: T1, human TREM2/DAP12 fusion protein (human, UniProt O43914 41-113, limits assumed); test: cell-based or functional assay
[2] = target: T2, human TREM2 Fc fusion (entire TREM2 ECD; only one Fc arm fused to TREM2) (human, UniProt Q9NZC2 19-174); test: BLI, IgG, avid
T2 construct: also called huTREM2-Fc; recombinant hTREM2
T2 sequence: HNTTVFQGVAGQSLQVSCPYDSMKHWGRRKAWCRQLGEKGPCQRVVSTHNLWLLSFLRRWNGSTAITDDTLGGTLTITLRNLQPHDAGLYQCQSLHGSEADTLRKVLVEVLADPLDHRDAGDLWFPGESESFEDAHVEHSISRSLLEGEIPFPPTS
Procedure, shortened: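 Avid format: AHQ-loaded IgGs exposed to 100 nM human or cyno TREM2-Fc antigen, 3 min association, 3 min dissociation in buffer. Monovalent format: human TREM2-Fc loaded on AHQ sensors, exposed to 100 nM Fab. Kinetics fit to 1:1 model, run at 25° C.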

[3] = target: T3, human TREM2 expressed on cells (human, UniProt Q9NZC2 19-230); test: cell-based or functional assay
T3 sequence: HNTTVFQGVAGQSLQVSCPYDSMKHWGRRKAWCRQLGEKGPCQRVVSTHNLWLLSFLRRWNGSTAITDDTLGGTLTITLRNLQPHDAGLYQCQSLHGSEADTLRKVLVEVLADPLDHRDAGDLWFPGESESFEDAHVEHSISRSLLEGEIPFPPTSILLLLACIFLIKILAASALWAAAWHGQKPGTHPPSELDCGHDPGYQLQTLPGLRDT

[4] = target: T1, human TREM2/DAP12 fusion protein; test: cell-based or functional assay; remark: listed apart in the source
[5] = target: T1, human TREM2/DAP12 fusion protein; test: cell-based or functional assay; remark: listed apart in the source
[6] = target: T2, human TREM2 Fc fusion (entire TREM2 …); test: BLI, Fab, monovalent
Protocol: Briefly, IgG's were loaded on-line onto AHQ sensors. Sensors were equilibrated off-line in assay buffer for 30 minutes and then monitored on-line for 60 seconds for baseline establishment. For avid binding measurement, sensors with loaded IgGs were exposed to 100 nM antigen (human TREM2 Fc fusion using the entire TREM2 ECD; only one Fc arm was fused to TREM2) for 3 minutes, afterwards they were transferred to assay buffer for 3 minutes for off-rate measurement. Monovalent binding measurements were obtained by loading human TREM2 Fe fusion antigens to AHQ sensor and followed by exposure to 100 nM TREM2 antibody Fab. Kinetics data were fit using a 1:1 binding model in the data analysis software provided by ForteBio. Assay was run at room temperature (25° C.).

[7] = target: T3, human TREM2 expressed on cells; test: FACS, hTREM2 BW cells
Procedure, shortened: (§1)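 Cells were BW5147.G.1.4 stably expressing human TREM2 with Dap12, or human monocyte-derived dendritic cells differentiated 6 days with GM-CSF and IL-4. Antibodies bound 1 h on ice in PBS+2% FBS, then PE anti-human secondary 30 min on ice; flow cytometry read-out as mean fluorescence intensity.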

[8] = target: T4, cynomolgus monkey TREM2 Fc fusion (entire TREM2 ECD; only one Fc arm fused to TREM2) (cynomolgus monkey, UniProt Q9NZC2 19-174 (human entry)); test: BLI, Fab, monovalent
T4 construct: also called cyno TREM2-Fc
T4 chain: T2 sequence with A10E, W60R, L89F, F125V

[9] = target: T2, human TREM2 Fc fusion (entire TREM2 …); test: BLI, Fab, monovalent; remark: listed apart in the source
[10] = target: T3, human TREM2 expressed on cells; test: FACS, human DCs
Procedure, shortened: as §1

[11] = target: T3, human TREM2 expressed on cells; test: FACS, hTREM2 BW cells; remark: listed apart in the source
Protocol: To examine cell binding of anti-TREM2 antibodies, recombinant, human TREM2-expressing BW5147.G.1.4 cells (ATCC® TIB48™) were established by stably expressing either mouse TREM2 or human TREM2 together with Dap12 using viral infection. Cells were harvested by scraping, washed in PBS, counted and plated on 96-well U bottom plates at 1)(10⁵ cells/well. The plates were spun at 1,400 rpm for 3 minutes and primary anti-TREM2 or control antibodies were added in FACS buffer (PBS H2% FBS) and incubated on ice for one hour. Cells were subsequently centrifuged as before and washed thrice with FACS buffer. Cells were then incubated with anti-human PE conjugated secondary antibody (BD Biosciences) in FACS buffer for 30 minutes on ice. Cells were again washed thrice with FACS buffer and analyzed on a BD FACS Canto. Binding was measured as mean fluorescence intensity in the APC channel.

[12] = target: T3, human TREM2 expressed on cells; test: FACS, hTREM2 BW cells; remark: listed apart in the source
[13] = target: T3, human TREM2 expressed on cells; test: cell-based or functional assay; remark: listed apart in the source
[14] = target: T1, human TREM2/DAP12 fusion protein; test: cell-based or functional assay; remark: listed apart in the source
[15] = target: T3, human TREM2 expressed on cells; test: FACS, hTREM2 BW cells; remark: listed apart in the source

T1 sequence (O43914 other isoform, or with tags, fused parts or gaps limits assumed): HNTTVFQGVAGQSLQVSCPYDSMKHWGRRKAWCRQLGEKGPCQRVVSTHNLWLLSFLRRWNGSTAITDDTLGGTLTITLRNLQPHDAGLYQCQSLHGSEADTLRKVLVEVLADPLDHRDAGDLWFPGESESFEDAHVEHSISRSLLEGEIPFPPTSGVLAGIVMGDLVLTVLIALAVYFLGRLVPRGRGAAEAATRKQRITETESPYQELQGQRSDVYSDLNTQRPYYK

B1: AL2p-h50 (antibody, human IgG1, V domains shown)
VH: QVQLVQSGAEVKKPGSSVKVSCKASGYAFSSSWMNWVRQAPGQGLEWMGRIYPGDGDTNYAQKFQGRVTITADESTSTAYMELSSLRSEDTAVYYCARLLRNQPGESYAMDYWGQGTLVTVSS
VL: DVVMTQTPLSLSVTPGQPASISCRSSQSLVHSNGYTYLHWYLQKPGQSPQLLIYKVSNRFSGVPDRFSGSGSGTDFTLKISRVEAEDVGVYYCSQSTRVPYTFGQGTKLEIK
notes: humanized, human IgG1; Fab and IgG formats under one id
Soluble luciferase activation at 10 µg/ml Fold over control [1]: 6.36 fold over control
Kd [2]: 1.19 nM
Survival huDCs plate bound IgG, AUC [3]: 337000 AUC
Luciferase activation plate bound 33 nM IgG, FOC [4]: 6.83 FOC
Luciferase activation soluble 10 nM IgG, FOC [4]: 1.26 FOC
luciferase activation, soluble IgG, EC50 [5]: 63.1 nM
Kd [6]: 180 nM
Kd [7]: 3.7 nM
Kd [8]: 7700 nM
Kd [9]: 112 nM
MFI [10]: 26 MFI
cell binding (FOB) [11]: 78 FOB

B2: AL2p-h77 (antibody, human IgG1, V domains shown)
VH: B1 VH with S16A, G44R, M48I, E74T, T76A
VL: DVVMTQSPDSLAVSLGERATINCRSSQSLVHSNGYTYLHWYQQKPGQSPKLLIYKVSNRFSGVPDRFSGSGSGTDFTLTISSLQAEDVAVYYCSQSTRVPYTFGGGTKVEIK
notes: humanized, human IgG1; Fab and IgG formats under one id; also called A2p-h77
Soluble luciferase activation at 10 µg/ml Fold over control [1]: 7.14 fold over control
Kd [2]: 1.17 nM
Survival huDCs plate bound IgG, AUC [3]: 381000 AUC
Luciferase activation plate bound 33 nM IgG, FOC [4]: 6.77 FOC
Luciferase activation soluble 10 nM IgG, FOC [4]: 1.47 FOC
luciferase activation, soluble IgG, EC50 [5]: 20.1 nM
Kd [6]: 93.9 nM
Kd [7]: 3.9 nM
Kd [8]: 184 nM
Kd [9]: 102 nM
MFI [10]: 162 MFI
cell binding (FOB) [11]: 83 FOB

B5: AL2p-59 (antibody, V domains shown)
VH: B1 VH with S32H, D55E, D57Q, F64R
VL: B1 VL with D1G, S25T, G34Q, F60V
notes: Fab and IgG formats under one id
luciferase activation, soluble IgG, EC50 [5]: 11.2 nM
Kd [12]: 1.24 nM
Kd [8]: 3.95 nM
Kd [9]: 3.85 nM

Further lines, with some results ahead:

Luciferase activation plate bound 33 nM IgG, FOC [4]: 7.42 FOC
Luciferase activation soluble 10 nM IgG, FOC [4]: 1.45 FOC
luciferase activation, soluble IgG, EC50 [5]: 66.2 nM
B3: AL2p-4 (antibody, V domains shown)
VH: B1 VH with D55Q
VL: B1 VL

Kd [2]: 0.837 nM
Luciferase activation plate bound 33 nM IgG, FOC [4]: 7.36 FOC
Luciferase activation soluble 10 nM IgG, FOC [4]: 1.7 FOC
luciferase activation, soluble IgG, EC50 [5]: 23 nM
Kd [7]: 2.2 nM
Kd [8]: 1400 nM
Kd [9]: 63.3 nM
B4: AL2p-2 (antibody, V domains shown)
VH: B1 VH with D55G
VL: B1 VL
notes: AL2p-h50 variant; Fab and IgG formats under one id
Survival huDCs plate bound IgG, AUC [3]: 461000 AUC

Plate bound IgG, fold over unstimulated control (25 nM IgG) [14]: 1.56 fold
Soluble IgG, EC50 [14]: 9.41 nM
Soluble IgG, fold over control IgG (17 nM IgG) [14]: 7.63 fold
Kd [2]: 0.779 nM
Luciferase activation plate bound 33 nM IgG, FOC [4]: 9.42 FOC
Luciferase activation soluble 10 nM IgG, FOC [4]: 2.16 FOC
Kd [7]: 2.9 nM
Kd [8]: 16.1 nM
Kd [9]: 23.8 nM
MFI [10]: 194 MFI
Bmax (MFI) [15]: 216000 MFI
Kd [15]: 1.17 nM
B6: AL2p-37 (antibody, IgG1, V domains shown)
VH: B1 VH with S16A, S32Q, G44R, M48I, D55G, Q62G, E74T, T76A
VL: B2 VL
notes: Fab and IgG formats under one id; also called AL2p-37 huIgG1
EC50 viability, dendritic cells D558 [13]: 4.19 nM
EC50 viability, dendritic cells D559 [13]: 6.16 nM
EC50 viability, dendritic cells D560 [13]: 4.47 nM
EC50 viability, macrophages D558 [13]: 1.24 nM
EC50 viability, macrophages D559 [13]: 18.3 nM
EC50 viability, macrophages D560 [13]: 31.8 nM
Survival huDCs plate bound IgG, AUC [3]: 680000 AUC

Kd [12]: 1.12 nM
B7: AL2p-60 (antibody, IgG1, V domains shown)
VH: B1 VH with S32Q, D55E, Q62R
VL: B1 VL with D1G, G34Q, F60R
EC50 viability, dendritic cells D558 [13]: 0.152 nM
EC50 viability, dendritic cells D559 [13]: 0.244 nM
EC50 viability, dendritic cells D560 [13]: 0.178 nM
EC50 viability, macrophages D559 [13]: 0.194 nM
EC50 viability, macrophages D560 [13]: 0.154 nM
